To fix the notation:
B1: wild-type human deoxythymidylate kinase (TMPK) [human] / itself (parent)
chain: MAARRGALIVLEGVDRAGKSTQSRKLVEALCAAGHRAELLRFPERSTEIGKLLSSYLQKKSDVEDHSVHLLFSANRWEQVPLIKEKLSQGVTLVVDRYAFSGVAFTGAKENFSLDWCKQPDVGLPKPDLVLFLQLQLADAAKRGAFGHERYENGAFQERALRCFHQLMKDTTLNWKMVDASKSIEAVHEDIRVLSEDAIRTATEKPLGELWK

In this experiment the parent is B1. Briefly: size-exclusion chromatography, protein concentration of fractions. As to conditions: with itself, 200 µg enzyme loaded, 0.4 mL fractions. In general terms: Size exclusion chromatography separates by hydrodynamic size, large species first.
Setting [1] is: fraction F18 (monomer fraction).
[2] abbreviates: fraction F19 (monomer fraction).
[3] abbreviates: fraction F20 (monomer fraction).

On to MAARRGALIVLEGVDRAGKSTQSRKLVEALCAAGHRAELLRFPERSTEIGKLLSSYLQKKSDVEDHSVHLLFSANRWEQVPLIKEKLSQGVTLVVDRYAFSGVAFTGAKENFSLDWCKQPDVGLPKPNLVLFLQLQLADAAKRGAFGHERYENGAFQERALRCFHQLMKDTTLNWKMVDASKSIEAVHEDIRVLSEDAIRTATEKPLGELWK [chain 1 D128N], for which the screen value (fraction F15 (dimer fraction)) came out at 0.004 mg/mL; the screen value (fraction F16 (dimer fraction)) turned out to be 0.005 mg/mL; the screen value under setting [1] is 0.016 mg/mL; the screen value under setting [2] was 0.019 mg/mL; the screen value under setting [3] amounted to 0.012 mg/mL.
On to MAARRGALIVLEGVDRAGKSTQSRKLVEALCAAGHRAELLRFPERSTEIGKLLSSYLQKKSDVEDHSVHLLFSANRWEQVLLIKEKLSQGVTLVVDRYAFSGVAFTGAKENFSLDWCKQPDVGLPKPDLVLFLQLQLADAAKRGAFGHERYENGAFQERALRCFHQLMKDTTLNWKMVDASKSIEAVHEDIRVLSEDAIRTATEKPLGELWK [chain 1 P81L], for which the screen value (fraction F15 (dimer fraction)) came to 0.002 mg/mL; the screen value (fraction F16 (dimer fraction)) was 0.009 mg/mL; the screen value under setting [1] was 0.024 mg/mL; the screen value under setting [2] was 0.016 mg/mL; the screen value under setting [3] was 0.013 mg/mL.
Turning to MAARRGALIVLEGVDRAGKSTQSRKLVEALCAAGHRAELLRFPERSTEIGKLLSSYLQKKSDVEDHSVHLLFSANRWEQVPLIKEKLSQGVTLVVDRYTFSGVAFTGAKENFSLDWCKQPDVGLPKPDLVLFLQLQLADAAKRGAFGHERYENGAFQERALRCFHQLMKDTTLNWKMVDASKSIEAVHEDIRVLSEDAIRTATEKPLGELWK [chain 1 A99T], the screen value (fraction F15 (dimer fraction)) came to 0.006 mg/mL; the screen value (fraction F16 (dimer fraction)) amounted to 0.01 mg/mL; the screen value under setting [1] worked out at 0.019 mg/mL; the screen value under setting [2] worked out at 0.015 mg/mL; the screen value under setting [3] amounted to 0.012 mg/mL.

The values above are taken from PMC8679000, “Biochemical Characterizations of Human TMPK Mutations Identified in Patients with Severe Microcephaly: Single Amino Acid Substitutions Impair Dimerization and Abolish Their Catalytic Activity” (ACS Omega, 2021).
